Assay results from the supplement of paper PMC12764529.
± gives the half width of the 95% confidence interval.

Tests used:
[1] = folding stability dG unfold (combined trypsin and chymotrypsin); higher = more stable
Method in brief: (§1)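 Designed mini-proteins with no cysteine and under 80 residues were kept only if AlphaFold2 dimer inter-PAE was above 15. In a PA-tagged cDNA display construct, they were digested with trypsin and chymotrypsin and then sequenced. K50 was inferred by Bayesian fitting of counts, and unfolding free energy was derived per protease or combined against a sequence-predicted unfolded-state K50 and a shared folded-state K50.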

[2] = folding stability dG unfold from trypsin proteolysis; higher = more stable
Method in brief: as §1

[3] = folding stability dG unfold from chymotrypsin proteolysis; higher = more stable
Method in brief: as §1

Row | Sequence | folding stability dG unfold [1] | folding stability dG unfold [2] | folding stability dG unfold [3]
1 | SAGGSAGGSGGMMSRTINVSVNPAPGESPEDIVKALAAELGVTIKSVKYSTSSSSLTFTIEVVSAGGSAGGS [r20_188_JUSTAS] | 2.16 ± 0.068 kcal/mol | 1.05 ± 0.04 kcal/mol | 2.48 ± 0.077 kcal/mol
2 | SAGGKKKKVKKVKVEVKVTVTLTIKLPKEKIKSKEEAEALAKKLLEELGIEGAKVKIEEKDGYLTLTFSAGG [r13_130_TrROS_Hall] | 3.85 ± 0.39 kcal/mol | 2.66 ± 0.092 kcal/mol | 4.24 ± 0.2 kcal/mol
3 | SAGMTIVIEIPSSTSYEDAVKAIKKIAKEIKEKGKKFKIVVLTKDPKIAEAIKKALEELGIPLEVKIGSAGG [r19_268_TrMRF] | 2.93 ± 0.059 kcal/mol | 2.77 ± 0.07 kcal/mol | 2.91 ± 0.043 kcal/mol
4 | SAGGSAGGMIEVYEEGDKLTVLNPGPDPNKKVTVTLDNGSATSSRIPEGTYVTTATVAPDATLKSAGGSAGG [r6_70_JUSTAS] | -0.169 ± 0.099 kcal/mol | 0.14 ± 0.028 kcal/mol | -1.06 ± 0.36 kcal/mol
5 | SPAEINIEFDPEEGRLRIKVKLEWPGGDPEPIATHEVPIGNNRYITYPIYKHPDGPWRIEDIDIMPPDELSA [r9_780_TrROS] | 0.727 ± 0.35 kcal/mol | 0.283 ± 0.14 kcal/mol | 1 ± 0.15 kcal/mol
6 | SAGGSAGGSAGMPIKTLKTTLVSVEKEPPGEGSYITTKSVTEFPDGSKSVTTTTVPASLLSAGGSAGGSAGG [r17_268_JUSTAS] | -0.576 ± 0.44 kcal/mol | -0.653 ± 0.59 kcal/mol | -0.228 ± 0.27 kcal/mol
7 | SAGGKTVTIKVTRPDGKELTIEFEEKDGKVTVRVFDKDGKLVKEIEVDSLEEALKALEEAGYEVEVVPSAGG [r13_315_TrROS_Hall] | 3.42 ± 0.2 kcal/mol | 3.49 ± 0.22 kcal/mol | 3.36 ± 0.15 kcal/mol
8 | SAGGSAGGSMVEGELPDAKVTVFFHPDGGALALVEFETETVLARIDVLPDDTLKITVIPAKDASAGGSAGGS [r12_669_TrMRF] | 2.16 ± 0.072 kcal/mol | 2.05 ± 0.05 kcal/mol | 2.252 ± 0.01 kcal/mol
9 | SAGMKIEVKKKKDGKLEVEIEVKTKDGRTIRVKIYYDKKTKKFYIVEIEAESEEEKKKAEELLKKLLKSSAG [r5_266_TrROS_Hall] | 3.42 ± 0.12 kcal/mol | 2.83 ± 0.14 kcal/mol | 3.62 ± 0.045 kcal/mol
10 | SAGGSVRLELEGVNPETGERYRLEFELPPVPLPPVLVVPLEDLELLRRLGIPEDAAVFPELGLVVVASAGGS [r16_194_TrMRF] | 2.66 ± 0.12 kcal/mol | 2.29 ± 0.082 kcal/mol | 2.76 ± 0.051 kcal/mol
11 | SAGGSAPFKAELVSYDPETGVATFKLTLPDGSEVTVVATLDPDGVPHVKAYFPDGSVYDIEEILASSAGGSA [r15_832_TrMRF] | 3.59 ± 0.1 kcal/mol | 2.28 ± 0.076 kcal/mol | 3.893 ± 0.022 kcal/mol
12 | SAGGSVEELRELARKLAEELGLEVVEVEVEEREDGKVTVTVTIKGPPKVEIKLEVTENEVKITEIKPSAGGS [r8_432_TrROS_Hall] | 3.42 ± 0.23 kcal/mol | 3.36 ± 0.25 kcal/mol | 3.35 ± 0.26 kcal/mol
13 | SAGGSAGGSIPPDVPVDLGAEVEYFPPGGVRRVRFSAPDGTPVATATFVFRGGELVEVRIEPASAGGSAGGS [r12_264_TrMRF] | 2.05 ± 0.15 kcal/mol | 1.89 ± 0.053 kcal/mol | 2.07 ± 0.13 kcal/mol
14 | SAGGMKPKEVIEIEITLPDGRKIRIRLVKKDGKLYLFIEVPEENEEARELAEELAKKLPGVEVEVFEPSAGG [r13_34_TrROS_Hall] | 3.03 ± 0.14 kcal/mol | 2.41 ± 0.1 kcal/mol | 3.26 ± 0.12 kcal/mol
15 | SAGGMEYDPETKTFHLHVPGGNLPELREAIENAPDRLVTIEVEDPLTDKPRLFTLPAEEARKFLEAGSAGGS [r16_797_TrMRF] | -0.254 ± 0.095 kcal/mol | -0.182 ± 0.12 kcal/mol | -0.455 ± 0.25 kcal/mol
16 | MMKVKIEVRNEENEEVLTIELEVPEGEELTEEEILDLIAERLGLSKEELRKRVRIEYDEETKRIRIEIRIES [r1_285_TrROS_Hall] | 2.87 ± 0.08 kcal/mol | 3.5 ± 0.053 kcal/mol | 2.27 ± 0.036 kcal/mol

Row | Sequence | folding stability dG unfold [1] | folding stability dG unfold [2] | folding stability dG unfold [3]
17 | SAGGSAGGSAGGSAKSPNGDELPPGQPVEEHTIRPPVKPTITIKMYADPDAGKMKFELFSAGGSAGGSAGGS [r4_13_TrROS] | 0.533 ± 0.6 kcal/mol | 0.225 ± 0.24 kcal/mol | 0.446 ± 0.31 kcal/mol
18 | SAGGSAGGSAGGEVKILRVEEFEDGVVRVFVEGDDPVLVIELGPDGVILSIEEVDSSELSAGGSAGGSAGGS [r10_211_TrMRF] | 0.781 ± 0.085 kcal/mol | 1.04 ± 0.044 kcal/mol | 0.562 ± 0.034 kcal/mol
19 | SAGGSAGGSAGMSVRVIEGDPALAKKFIEEHPDEIVSVEVTPHPETGTYTYVFVFKGPPKSAGGSAGGSAGG [r17_79_TrMRF] | 2.39 ± 0.091 kcal/mol | 2.33 ± 0.086 kcal/mol | 2.44 ± 0.041 kcal/mol
20 | SAGMEKKTFTFPTRTVLVVRGPDGTVLVVVDDPDGDPEVLTPDGTPVPYVDLPNGQRLYRFPAALFEKVSAG [r5_457_TrMRF] | 2.88 ± 0.063 kcal/mol | 2.1 ± 0.035 kcal/mol | 3.182 ± 0.023 kcal/mol
21 | SAGGSAGGSAGGVAVPKEGIEEFISQLPPDTVVTLYDPETGKDIKVTVSNGKVTISPEGSAGGSAGGSAGGS [r10_137_JUSTAS] | 1.17 ± 0.12 kcal/mol | 1.29 ± 0.12 kcal/mol | 1.02 ± 0.12 kcal/mol
22 | SAGGSAGGSAGPVLKIKVEVKLEKKYDKNGKLVEEKLEVKVEIELLEPAPPASDEELKKKSAGGSAGGSAGG [r11_131_TrROS_Hall] | 1.6 ± 0.39 kcal/mol | 0.29 ± 0.24 kcal/mol | 1.69 ± 0.2 kcal/mol
23 | SAGGDTIMIPIRGKGSLEQAKEWAKEIAREFYREGWKNIKISVWVYDKENGEPVYRKEAEIPIKPGDSAGGS [r8_33_TrROS] | 1.94 ± 0.22 kcal/mol | 1.63 ± 0.11 kcal/mol | 2.14 ± 0.18 kcal/mol
24 | SAGGSAGGSAKVEPVGVDPKNLVVVYRFENFTVAVTYDPESGKVTVRITDPDGNVLEFELSSAGGSAGGSAG [r3_25_TrMRF] | 3.71 ± 0.086 kcal/mol | 2.24 ± 0.077 kcal/mol | 4.112 ± 0.041 kcal/mol
25 | SAGGSASIEIPFNGHPYKIEIDDVEPPDEQYRAKAEIRFPGNGKKIPVEGDMPKSDAEDAIKEAIRSAGGSA [r15_944_TrROS] | 0.362 ± 0.25 kcal/mol | -0.527 ± 0.19 kcal/mol | 0.49 ± 0.16 kcal/mol
26 | SAGGSAGGSAGGSVVTRLPNGSYRYTVTRVSFDPKTGTWSSETTVLTVPPDRPVEIPPGSAGGSAGGSAGGS [r4_48_JUSTAS] | 1.89 ± 0.096 kcal/mol | 1.14 ± 0.049 kcal/mol | 2.26 ± 0.11 kcal/mol
27 | SAGGSAGGSAGGSKKTITLDIKVNGYLVKVKLNLETNKLEIVEVYKVSPEKKKLSPKDKSAGGSAGGSAGGS [r4_21_TrROS_Hall] | 1.93 ± 0.1 kcal/mol | 0.824 ± 0.029 kcal/mol | 2.33 ± 0.068 kcal/mol
28 | SAGGSAGGELPPPPLLVVRVTVRRDGKELELELVVPSLEEALEALRALLPEEDLEIRVEVRLLPSAGGSAGG [r6_113_TrROS_Hall] | 2.67 ± 0.2 kcal/mol | 2.12 ± 0.089 kcal/mol | 2.92 ± 0.16 kcal/mol
29 | SAGGSAGGSAMITYTAPGGTPVTVTPDPVTGTLSATFPDGSVITAPVVGDTIPVTVVPPAAVSAGGSAGGSA [r18_405_JUSTAS] | 0.851 ± 0.042 kcal/mol | 1.37 ± 0.023 kcal/mol | -0.295 ± 0.11 kcal/mol
30 | SSIEEQIREIFEPKGMEITDVKTEKKPDGTTVAKFTYTDPVKDEKGNPISTLTKEGTVVFKNGKIVEVEESA [r9_519_JUSTAS] | 2.61 ± 0.049 kcal/mol | 2.27 ± 0.052 kcal/mol | 2.779 ± 0.016 kcal/mol
31 | SAGGTMIELKSASGKTALLPLPPGTERVEREGDKWTIYLPPEYTLTVEITAPVPPSSLFDLKVLSRKLSAGG [r19_274_JUSTAS] | 0.734 ± 0.31 kcal/mol | 0.595 ± 0.077 kcal/mol | 0.509 ± 0.35 kcal/mol
